# According to patent publication US20260241035A1, “FUNCTIONAL NUCLEIC ACID MOLECULE AND METHOD” (THE UNIVERSITY COURT OF THE UNIVERSITY OF EDINBURGH, priority 2022, published 2026):
# B1: CSE006: clustered SOX dimer motif enhancer, SEQ ID NO: 53 (nucleic acid)
# DNA: AGGAAGAAGCATGCTGGGTCATTTTTGCCTTGTTTCTAGCTGCATGAATTGAAAAGCCAGGCCCAGGTTCAATGCATCATTCTTGAAGCAGTGAACAAAATCCCTCTTTGTTCCCCAGTGAAACTTATCTCTGAAGAGCTGCACTACTTCCTGTGAGATATAGCCCTGCAGATGTGTCGTGGGAGACCCGCCCGGCTGCACTGCCTTCCATAAAAGTGCAAGAATGGGCACTTTGTACTGCTGGACTGAAAATGACACTCACTCTTCTGATCCCCACTGGGGTTACCAAGTGGGCAAAACTTCCTGCTTAGAGGAGGGGTCATAGACAGCAGGGGGAGTGTGTGATTTTGTTTTGTTCCTTTGTGAATTTGTTTAGCTATTTATAGAGCTAAAGGAGAAAGCAAACGGGCACAATGTAGCACAGTGTTTTTCAAAGTGTATTCCATGGAACCCTTTCGTGGGTTGCAGACCCCAGGGGTGGAGGCAGAGGATGGGGTGGTGACAGCAGCAGGTGCTGTCCAGGGCCTTCTGTCT
# B2: ID4428: enhancer fragment, SEQ ID NO: 18 (nucleic acid)
# DNA: TCTAAATGGAGATCCTCCCATAAAGGGAGTTCTGTTTGGGCTTCCCTTGGAAGTCCATTGAAAGCGTTTCACATTTCAATGCTTCTTTACATTCTCCTCTAGAATGAATCTGGAAGGGCCATTTCATTCCAGCCCTATCAGATTTACTACTTCCTCCTGT
# B3: ID4310: enhancer fragment, SEQ ID NO: 17 (nucleic acid)
# DNA: TTGTCCTGCCTTTGAGAACACTGGAAGGGCACTGAAGGCTGACCAGCATGCACCTCACCCCACCTCCTCTCTGTCTCATCCTCAGCCATCTAAGCGGGAGACTCATCAGGCTTAAATTCTCATTCTTATCCAAGATTCTTCTGCTTCAAATGAG
# B4: ID3765: enhancer fragment, SEQ ID NO: 21 (nucleic acid)
# DNA: B3 DNA
# B5: ID3836: enhancer fragment, SEQ ID NO: 20 (nucleic acid)
# DNA: TACCCTTCCAGGGGAGCAGTTTCCTGGCTGTGTCGTCAGATACTGTGGTTTACGCTGTTCCGGAGTCTGGAGGTCTGTGTGCCTTTGATCTCTTTCCCAACTAATTTGCACAGCTGCTGTGGAGGCCCTCATGAATGACCTCTTTCTTTCCTTTCT
# B6: ID3548: enhancer fragment, SEQ ID NO: 15 (nucleic acid)
# DNA: TCCAAACACTCCCCTGCAACAGATGTACACACAGAGCCCATTGTTTTCTCTAGAAATGTAAACTGCACGTCACAGTTACTCCATACACACCACAAACAGACTCCCTTTGTTCTCAGGATATGTGTTGACACAAGAATATGTCATCCTCTCAGCTCCAGAC
# B7: ID1322: enhancer fragment, SEQ ID NO: 27 (nucleic acid)
# DNA: GGGCAACAAAGGATGCCATGCAAAGCAGCTCAGAACTTGAGTTGTTTCAACAGATGCTGTTTTATGTTTTGCCAAAGAATGGCCCCTTTTATTTCTGTCATGAATGCAGTCTTTCTTTCAGTTTCTAAATGTTTGCCAGTATTAACCCTAATCCTTATCT
# B8: ID2706: enhancer fragment, SEQ ID NO: 12 (nucleic acid)
# DNA: CCAATGCCAAAGCAGTTTACATTTTACAGATGCCATGGCAACCGTCAGGAAGTTACCCTGTATGGTCTAAGAGGGGGAGGAACCCTCAGTTCCGGGAATTGCCCGCCCCTTTCCCGGAAACTCATGAATAATCCACCC
# B9: ID1244: enhancer fragment, SEQ ID NO: 25 (nucleic acid)
# DNA: ACAGCAGCCAGAGGAAGTGGCTGTGTACAGAGAGCTTTTGTGAGAGAAGAGGGGGAGGGGGAAAGAGCAAAGAAAAAGAAGGAAAGAAGAGAGGGAAGAGGCCAGAGACAGAGAAGGCCAGAGCA
# modifications: listed as DNA, chemistry not given here
# B10: ID3146: enhancer fragment, SEQ ID NO: 16 (nucleic acid)
# DNA: TGAAAGAGATGGGTGTGTGGGAGTGGGGGAAGCTGAGCTCCAGGCAGACAGCACAGAGCCGCCTTGTCCAACCCAGCCAGGTGCCATGGCAACCAACAAAGGCCCCATTGTCCCGTGTCTGCTGGGCCTTCCTGAGGCTCTGGGGTCAGAGTCCCGGTT
# B11: ID0885: enhancer fragment, SEQ ID NO: 14 (nucleic acid)
# DNA: CAGCAAAGGCTGCACGCAATGGGGGAGGGGGAAGGAGGGAAGGATATTTCCTCCTTTTTAGATCAGTTTCTTTTCTGAGCACAAGTGCTTTCTGTGTCATCCTAACAATGTAAGAGCCCACTAAGTTTAGGACGCATAATACCGGCCTTTGTTCTACTCC
# B12: ID3547: enhancer fragment, SEQ ID NO: 13 (nucleic acid)
# DNA: CGTTCCCCCTTAACAAAAGCCACCTCCTCCCTCCTGAAAGGCACCATTGGTCACCAAAACAAGTCCCCTTTGTCCTCCACCGCAGCTGGAGCCTGGGCCTTCCATCTCCTGGGGGCCAATAAAACCCCAGATCAGCCAATCCTCCCTCCCTGGCTCTGTCA
# B13: ID0785: enhancer fragment, SEQ ID NO: 19 (nucleic acid)
# DNA: AAGAATGAACTGGGCCCAGCTGGGCATTTGCATCAAAGTGCCTCACCAGAGTTCCCAGCTGCTCTGGCAGAGTGCCCAGGCTTGCCCCAGAGCCCAAACAGAATGCTCTTTGAGATGCCTCTGGTTTTCA
# modifications: listed as DNA, chemistry not given here
# B14: ID1176: enhancer fragment, SEQ ID NO: 22 (nucleic acid)
# DNA: ACAAACTAAACACAGACATTTTCTCAATTAGTCATTTTCAGGTTTATTGCCTAAGATGCTAATTGAAATTCAGGGCAGGCAAAAATACATCATTGGCCTTTGTATATCTTTGAAAGGCCTTCTGATGGGACCTTGCTCCGTATAAAGGCTTCTCTTCTCT
# B15: ID1737: enhancer fragment, SEQ ID NO: 10 (nucleic acid)
# DNA: CAACGTTTTTGGCAGATGCAGCTCTTTCTGAACAGTAAGTCATTGTTGAGTGACATGAATAGGACGAGAGCTACAGAAAATGAAGGTTTCAAAAGATTGTCTAAAACAAAAGTCCTTTCAGTCCCGTATTCAGAGTT
# B16: ID0456: enhancer fragment, SEQ ID NO: 26 (nucleic acid)
# DNA: ATCACAAAGTGGTTAGCATGCAGGGGAGTGCGCCGGTCCCCCGCCTGTATTTGCATGACAAAAGCGCCTGCCCAACGGCTCTCGGTGGCTTTGTTGAGAGCTGCAGCCTCGCTCAGGCTGAGCCTTGGGAATTGTTCCCCGACATTGGTTGTTCCTGGGC
# B17: ID0663: enhancer fragment, SEQ ID NO: 11 (nucleic acid)
# DNA: ATAAATTCCGATTAGCCAAGGAAGCTCTGAGTCTAAATACCAGCAAAGCTCAGCCCCTGCAAGTGGGGACGAATTATTTGAAAGGTCATCCTAGAGACACTGAACAAAGGGCCTCTAGCAGCT
# modifications: listed as DNA, chemistry not given here
# B18: CSE031: clustered SOX dimer motif enhancer, SEQ ID NO: 52 (nucleic acid)
# DNA: CAGAGGAGAGAGGAGGTCATTTGGGACCATTTACTCATGCGAGAGTCACTGCCCCATGCTAAGATTTCCCCTAAAAATAAAATGATAAGATAATAACTCATAATGCTCTCCCCAAATCAGTACCACACAGACCCCCCTCTTCTGTTTGCTCAGACCCCCGCTCTCCAGCACAAAGTCTTTATTGGTCTCCCTGCAGGGGTGAAAATAAAGGGGGTTTTGTTCTTCTCCTCCCCCTCCCCCCTCGAAGGGCTGAGTGAGTTTATCTGACACTGCAGCAGTCTTTGTAAACTGAGTGTCCCAGGATAAACGCTCCCTTAAGAGTCGCTTGGCCTGGGACAGAGGGACCCTCTCCAGAGGAGAATGGGGAGCTTGTTCCAATGGTCTTTTAATATGGGGGGCGGGGTGTCACCAAGGACAGGCCTCCAGCACACTCTCACAGAAGGGTCTCTGTCCTGAGGCTACAGTGGAGGGAATTCTTAAAGACACAGATGCTGAAAAGGGGGAAGGAATTTTTTTTTCCCCTAAGGGGAGGGGAGGGAGGTTAGGGCGGGAAGGAGAAGGGGGAGTGGCGAGGACTCCTCATTCCCCAGAACAATTCCAGTTACAACAAGGCGTCTCTAT
# B19: ID0291: enhancer fragment, SEQ ID NO: 24 (nucleic acid)
# DNA: CATTCTTTGCAGATAGGAAACAGTTTGCTATCTGAGAGACTGGCCAAAAACCTTACTTTCAAGTAAAATAGGGCTCTATTCATAAGCTCCTACATGTACACAAGTTACTCTTTATACTCCTTTCAGACAATGATAAGAATAGAAACTATTTAATTCAGGA
# B20: ID1888: enhancer fragment, SEQ ID NO: 23 (nucleic acid)
# DNA: GACCTTGCCTCTTTCTGGCCTGTGGCCTTTCTCCTCCCCCAGCTGCTGTCTGGCCGCCCCACCCCCAAGTCTCTGCCACAACCAAAGCTCCTTTGTTGCCTCCCCCTGCCCCGGGCCTCTCCACCTGCTGCTAGCTCAATCCCCTCTTTGTGTGGTTGGT
# System: GSC7 cells
# Assay: Nano-Glo Dual-Luciferase Reporter (Nanoglo DLR) assay of enhancer activity, fold change to mCMV
# Assay type: cell-based, human
# Conditions: expression fold change of the individual enhancer compared to mCMV
# Outline: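 160 bp enhancer fragments in NanoLuc reporter plasmids were co-transfected 1:10 with PGK-firefly luciferase into GSC7 cells using Lipofectamine LTX/Plus and read two days later. NanoLuc signal was normalised to firefly, then expressed as fold change to the empty mCMV vector.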
row,Molecule,Fold change (Median) [fold]
1,B1,524.3
2,B2,36.2
3,B3,36.3
4,B4,31.7
5,B5,33.4
6,B6,40.0
7,B7,26.7
8,B8,57.2
9,B9,27.8
10,B10,37.2
11,B11,42.6
12,B12,53.2
13,B13,34.3
14,B14,31.3
15,B15,77.1
16,B16,27.2
17,B17,59.1
18,B18,249.3
19,B19,29.0
20,B20,31.1
